Data as given in patent publication US10233219 (TUFTS MEDICAL CENTER, dated 2019).
Non-standard residues stand in square brackets, D forms with d. No end group written: not given here. *: point of attachment. PEG8 = NCCOCCOCCOCCOCCOCCOCCOCCOCCC(=O)O; Palmitoyl = CCCCCCCCCCCCCCCC(=O)*; Tic = O=C(O)[C@@H]1Cc2ccccc2CN1

T1: human CMKLR1 (chemerin receptor) (human, UniProt Q99788 1-373)
T1 sequence (looked up): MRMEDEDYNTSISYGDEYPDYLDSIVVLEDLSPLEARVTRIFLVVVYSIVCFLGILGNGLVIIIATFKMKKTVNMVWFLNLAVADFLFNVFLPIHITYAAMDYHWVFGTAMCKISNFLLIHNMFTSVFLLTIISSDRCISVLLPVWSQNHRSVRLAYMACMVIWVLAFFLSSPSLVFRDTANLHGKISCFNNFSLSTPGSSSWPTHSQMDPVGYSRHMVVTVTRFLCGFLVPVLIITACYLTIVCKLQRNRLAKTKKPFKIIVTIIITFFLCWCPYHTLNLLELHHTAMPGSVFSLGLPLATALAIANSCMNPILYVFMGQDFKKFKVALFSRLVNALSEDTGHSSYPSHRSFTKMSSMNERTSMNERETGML

T2: mouse CMKLR1 (chemerin receptor) (mouse, UniProt P97468 1-371)
T2 sequence (looked up): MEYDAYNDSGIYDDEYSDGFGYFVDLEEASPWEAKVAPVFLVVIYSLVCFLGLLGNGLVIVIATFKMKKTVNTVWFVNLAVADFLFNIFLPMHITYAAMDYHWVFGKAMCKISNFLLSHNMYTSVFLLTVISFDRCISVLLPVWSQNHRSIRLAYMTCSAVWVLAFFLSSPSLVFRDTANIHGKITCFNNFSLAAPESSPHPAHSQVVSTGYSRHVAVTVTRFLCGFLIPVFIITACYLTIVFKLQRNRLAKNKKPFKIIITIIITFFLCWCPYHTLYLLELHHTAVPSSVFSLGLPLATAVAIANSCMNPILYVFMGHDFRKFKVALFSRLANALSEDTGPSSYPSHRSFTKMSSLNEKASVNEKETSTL

B1: s-Chem 21-157 (soluble recombinant human chemerin corresponding to amino acids 21-157) (ligand)
chain: ELTEAQRRGLQVALEEFHKHPPVQWAFQETSVESAVDTPFPAGIFVRLEFKLQQTSCRKRDWKKPECKVRPNGRKRKCLACIKLGSEDKVLGRLVHCPIETQVLREAEEHQETQCLRVQRAGEDPHSFYFPGQFAFS
B2: l-SubP-COOH (lipidated Substance P with a C-terminal free acid) (peptide)
peptide: {Palmitoyl-PEG8}-KGGRPKPQQFFGLM-OH
SMILES: CCCCCCCCCCCCCCCC(=O)NCCOCCOCCOCCOCCOCCOCCOCCOCCC(=O)N[C@@H](CCCCN)C(=O)NCC(=O)NCC(=O)N[C@@H](CCCNC(=N)N)C(=O)N1CCC[C@H]1C(=O)N[C@@H](CCCCN)C(=O)N1CCC[C@H]1C(=O)N[C@@H](CCC(N)=O)C(=O)N[C@@H](CCC(N)=O)C(=O)N[C@@H](Cc1ccccc1)C(=O)N[C@@H](Cc1ccccc1)C(=O)NCC(=O)N[C@@H](CC(C)C)C(=O)N[C@@H](CCSC)C(=O)O

Assays:
Experiment in all cases: cell-based or functional assay
[1] = molecular target: T1, human CMKLR1 (chemerin receptor)
[2] = molecular target: T2, mouse CMKLR1 (chemerin receptor)
neurokinin 1 receptor = neurokinin 1 receptor (human, UniProt P25103 1-407)
neurokinin 1 receptor, sequence (P25103 whole entry): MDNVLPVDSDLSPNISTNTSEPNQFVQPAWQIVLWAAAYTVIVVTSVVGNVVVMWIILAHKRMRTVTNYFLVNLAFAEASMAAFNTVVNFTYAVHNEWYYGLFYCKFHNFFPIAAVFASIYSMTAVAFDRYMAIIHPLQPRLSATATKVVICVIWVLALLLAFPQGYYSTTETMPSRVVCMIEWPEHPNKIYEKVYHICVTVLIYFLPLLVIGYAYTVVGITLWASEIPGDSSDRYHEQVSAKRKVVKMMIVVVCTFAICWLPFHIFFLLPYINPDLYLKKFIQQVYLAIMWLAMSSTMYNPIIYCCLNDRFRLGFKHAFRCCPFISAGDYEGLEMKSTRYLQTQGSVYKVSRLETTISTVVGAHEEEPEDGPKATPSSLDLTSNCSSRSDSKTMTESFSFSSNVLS

| EC50 [1] [nM] | pEC50 [1] | EC50 [2] [nM] | pEC50 [2] | EC50 (nM), + wash [1] [nM] | pEC50, + wash [1] | EC50 (nM), + wash [2] [nM] | pEC50, + wash [2] | EC50 (neurokinin 1 receptor) [nM] | Binder |
| --- | --- | --- | --- | --- | --- | --- | --- | --- | --- |
| 60.6 | 7.21 | 11.9 | 7.92 | – | – | – | – | – | H-[dY]FLPSQF[dA][Tic]S (also: D-Ser, which S not given here) [s-Stable Chem (soluble stable chemerin peptide)] |
| – | – | 13.7 | 8.01 | – | – | – | – | – | B1 |
| 2.6 | 8.59 | 2 | 8.7 | 27.1 | 7.6 | 10.4 | 7.96 | – | {Palmitoyl-PEG8}-GG[dY]FLPSQF[dA][Tic]S (also: D-Ser, which S not given here) [l-Stable Chem (lipidated stable chemerin peptide)] |
| – | – | – | – | – | – | – | – | 6.1 | B2 |
